Results: PMC11574045, “A cofactor-induced repressive type of transcription factor condensation can be induced by synthetic peptides to suppress tumorigenesis” (The EMBO Journal, 2024)

B1: CEBPD (protein, UniProt P49716 2-269, looked up)
CCAAT/enhancer-binding …: SAALFSLDGPARGAPWPAEPAPFYEPGRAGKPGRGAEPGALGEPGAAAPAMYDDESAIDFSAYIDSMAAVPTLELCHDELFADLFNSNHKAGGAGPLELLPGGPARPLGPGPAAPRLLKREPDWGDGDAPGSLLPAQVAACAQTVVSLAAAGQPTPPTSPEPPRSSPRQTPAPGPAREKSAGKRGPDRGSPEYRQRRERNNIAVRKSRDKAKRRNQEMQQKLVELSAENEKLHQRVEQLTRDLAGLRQFFKQLPSPPFLPAAGTADCR
B2: CEBPE (protein, UniProt Q15744 1-281, looked up)
CCAAT/enhancer-binding …: MSHGTYYECEPRGGQQPLEFSGGRAGPGELGDMCEHEASIDLSAYIESGEEQLLSDLFAVKPAPEARGLKGPGTPAFPHYLPPDPRPFAYPPHTFGPDRKALGPGIYSSPGSYDPRAVAVKEEPRGPEGSRAASRGSYNPLQYQVAHCGQTAMHLPPTLAAPGQPLRVLKAPLATAAPPCSPLLKAPSPAGPLHKGKKAVNKDSLEYRLRRERNNIAVRKSRDKAKRRILETQQKVLEYMAENERLRSRVEQLTQELDTLRNLFRQIPEAANLIKGVGGCS
B3: CEBPG (protein, UniProt P53567 1-150, looked up)
CCAAT/enhancer-binding …: MSKISQQNSTPGVNGISVIHTQAHASGLQQVPQLVPAGPGGGGKAVAPSKQSKKSSPMDRNSDEYRQRRERNNMAVKKSRLKSKQKAQDTLQRVNQLKEENERLEAKIKLLTKELSVLKDLFLEHAHNLADNVQSISTENTTADGDNAGQ
B4: AATF (protein, UniProt Q9JKX4 2-526, looked up)
Protein AATF: AAPQPLALQLEQLLNPRPREADPEADPEEATRARVIDRFDEGEEEKDDLAVSSIRKLAPVSLLDTDKRYSGKTTSRKAWKEDHWEQALPSSSDNEASDEGGSEDGDSEGLGLEEISEDVDEDLEDNKISDEGGSEDGDSEGLGLEEFSEDVEEDLEGEDEEDREEDRNSEDDGVVAAFSSVKVSEEVEKGRAVKNQIALWDQLLEGRIKLQKALLTTNQLPQPDVFPVFKDKGGPEFASALKNSHKALKALLRSLVDLQEELLFQYPDTRHIVNGAKPNTESEEISSEDDELVGEKKKQRKAPPKRKLEMEDYPSFMAKRFADFTIYRNHTLQKWHDKTKLASGKLGKGFGAFERSILTQIDHIMMDKERLLRRTQTKRSAYRVLGKPEPVPEPVAETLPGEPETLPQGPANAHLRDLDEEIFDDDDFYHQLLRELIERKTSSLDPNDQVAMGRQWLAIQKLRSKIRKKVDRKASKGRKLRFHVLSKLLSFMAPIDHTAMSDDARTELFRSLFGQLNPPDADRGK
B5: CJUN (protein, UniProt P05412 1-331, looked up)
Transcription factor Jun: MTAKMETTFYDDALNASFLPSESGPYGYSNPKILKQSMTLNLADPVGSLKPHLRAKNSDLLTSPDVGLLKLASPELERLIIQSSNGHITTTPTPTQFLCPKNVTDEQEGFAEGFVRALAELHSQNTLPSVTSAAQPVNGAGMVAPAVASVAGGSGSGGFSASLHSEPPVYANLSNFNPGALSSGGGAPSYGAAGLAFPAQPQQQQQPPHHLPQQMPVQHPRLQALKEEPQTVPEMPGETPPLSPIDMESQERIKAERKRMRNRIAASKCRKRKLERIARLEEKVKTLKAQNSELASTANMLREQVAQLKQKVMNHVNSGCQLMLTQQLQTF
B6: CLOCK (protein, UniProt O15516 1-846, looked up)
Circadian locomoter output …: MLFTVSCSKMSSIVDRDDSSIFDGLVEEDDKDKAKRVSRNKSEKKRRDQFNVLIKELGSMLPGNARKMDKSTVLQKSIDFLRKHKEITAQSDASEIRQDWKPTFLSNEEFTQLMLEALDGFFLAIMTDGSIIYVSESVTSLLEHLPSDLVDQSIFNFIPEGEHSEVYKILSTHLLESDSLTPEYLKSKNQLEFCCHMLRGTIDPKEPSTYEYVKFIGNFKSLNSVSSSAHNGFEGTIQRTHRPSYEDRVCFVATVRLATPQFIKEMCTVEEPNEEFTSRHSLEWKFLFLDHRAPPIIGYLPFEVLGTSGYDYYHVDDLENLAKCHEHLMQYGKGKSCYYRFLTKGQQWIWLQTHYYITYHQWNSRPEFIVCTHTVVSYAEVRAERRRELGIEESLPETAADKSQDSGSDNRINTVSLKEALERFDHSPTPSASSRSSRKSSHTAVSDPSSTPTKIPTDTSTPPRQHLPAHEKMVQRRSSFSSQSINSQSVGSSLTQPVMSQATNLPIPQGMSQFQFSAQLGAMQHLKDQLEQRTRMIEANIHRQQEELRKIQEQLQMVHGQGLQMFLQQSNPGLNFGSVQLSSGNSSNIQQLAPINMQGQVVPTNQIQSGMNTGHIGTTQHMIQQQTLQSTSTQSQQNVLSGHSQQTSLPSQTQSTLTAPLYNTMVISQPAAGSMVQIPSSMPQNSTQSAAVTTFTQDRQIRFSQGQQLVTKLVTAPVACGAVMVPSTMLMGQVVTAYPTFATQQQQSQTLSVTQQQQQQSSQEQQLTSVQQPSQAQLTQPPQQFLQTSRLLHGNPSTQLILSAAFPLQQSTFPQSHHQQHQSQQQQQLSRHRTDSLPDPSKVQPQ
B7: ABT1 (protein, UniProt Q9ULW3 1-272, looked up)
Activator of basal …: MEAEESEKAATEQEPLEGTEQTLDAEEEQEESEEAACGSKKRVVPGIVYLGHIPPRFRPLHVRNLLSAYGEVGRVFFQAEDRFVRRKKKAAAAAGGKKRSYTKDYTEGWVEFRDKRIAKRVAASLHNTPMGARRRSPFRYDLWNLKYLHRFTWSHLSEHLAFERQVRRQRLRAEVAQAKRETDFYLQSVERGQRFLAADGDPARPDGSWTFAQRPTEQELRARKAARPGGRERARLATAQDKARSNKGLLARIFGAPPPSESMEGPSLVRDS
B8: CREB5 (protein, UniProt Q02930 1-508, looked up)
Cyclic AMP-responsive …: MIYEESKMNLEQERPFVCSAPGCSQRFPTEDHLMIHRHKHEMTLKFPSIKTDNMLSDQTPTPTRFLKNCEEVGLFSELDCSLEHEFRKAQEEESSKRNISMHNAVGGAMTGPGTHQLSSARLPNHDTNVVIQQAMPSPQSSSVITQAPSTNRQIGPVPGSLSSLLHLHNRQRQPMPASMPGTLPNPTMPGSSAVLMPMERQMSVNSSIMGMQGPNLSNPCASPQVQPMHSEAKMRLKAALTHHPAAMSNGNMNTMGHMMEMMGSRQDQTPHHHMHSHPHQHQTLPPHHPYPHQHQHPAHHPHPQPHHQQNHPHHHSHSHLHAHPAHHQTSPHPPLHTGNQAQVSPATQQMQPTQTIQPPQPTGGRRRRVVDEDPDERRRKFLERNRAAATRCRQKRKVWVMSLEKKAEELTQTNMQLQNEVSMLKNEVAQLKQLLLTHKDCPITAMQKESQGYLSPESSPPASPVPACSQQQVIQHNTITTSSSVSEVVGSSTLSQLTTHRTDLNPIL
B9: CREBL2 (protein, UniProt O60519 1-120, looked up)
cAMP-responsive …: MDDSKVVGGKVKKPGKRGRKPAKIDLKAKLERSRQSARECRARKKLRYQYLEELVSSRERAICALREELEMYKQWCMAMDQGKIPSEIKALLTGEEQNKSQQNSSRHTKAGKTDANSNSW
B10: CREM (protein, UniProt Q03060 1-345, looked up)
cAMP-responsive element …: MTMETVESQHDGSITASLTESKSAHVQTQTGQNSIPALAQVSVAGSGTRRGSPAVTLVQLPSGQTIHVQGVIQTPQPWVIQSSEIHTVQVAAIAETDESAESEGVIDSHKRREILSRRPSYRKILNELSSDVPGVPKIEEERSEEEGTPPSIATMAVPTSIYQTSTGQYIAIAQGGTIQISNPGSDGVQGLQALTMTNSGAPPPGATIVQYAAQSADGTQQFFVPGSQVVVQDEETELAPSHMAAATGDMPTYQIRAPTAALPQGVVMAASPGSLHSPQQLAEEATRKRELRLMKNREAAKECRRRKKEYVKCLESRVAVLEVQNKKLIEELETLKDICSPKTDY
B11: CRSP6 (protein, UniProt Q9NVC6 1-651, looked up)
Mediator of RNA polymerase II …: MSGVRAVRISIESACEKQVHEVGLDGTETYLPPLSMSQNLARLAQRIDFSQGSGSEEEEAAGTEGDAQEWPGAGSSADQDDEEGVVKFQPSLWPWDSVRNNLRSALTEMCVLYDVLSIVRDKKFMTLDPVSQDALPPKQNPQTLQLISKKKSLAGAAQILLKGAERLTKSVTENQENKLQRDFNSELLRLRQHWKLRKVGDKILGDLSYRSAGSLFPHHGTFEVIKNTDLDLDKKIPEDYCPLDVQIPSDLEGSAYIKVSIQKQAPDIGDLGTVNLFKRPLPKSKPGSPHWQTKLEAAQNVLLCKEIFAQLSREAVQIKSQVPHIVVKNQIISQPFPSLQLSISLCHSSNDKKSQKFATEKQCPEDHLYVLEHNLHLLIREFHKQTLSSIMMPHPASAPFGHKRMRLSGPQAFDKNEINSLQSSEGLLEKIIKQAKHIFLRSRAAATIDSLASRIEDPQIQAHWSNINDVYESSVKVLITSQGYEQICKSIQLQLNIGVEQIRVVHRDGRVITLSYQEQELQDFLLSQMSQHQVHAVQQLAKVMGWQVLSFSNHVGLGPIESIGNASAITVASPSGDYAISVRNGPESGSKIMVQFPRNQCKDLPKSDVLQDNKWSHLRGPFKEVQWNKMEGRNFVYKMELLMSALSPCLL
B12: CRSP9 (protein, UniProt O43513 1-233, looked up)
Mediator of RNA polymerase II …: MGEPQQVSALPPPPMQYIKEYTDENIQEGLAPKPPPPIKDSYMMFGNQFQCDDLIIRPLESQGIERLHPMQFDHKKELRKLNMSILINFLDLLDILIRSPGSIKREEKLEDLKLLFVHVHHLINEYRPHQARETLRVMMEVQKRQRLETAERFQKHLERVIEMIQNCLASLPDDLPHSEAGMRVKTEPMDADDSNNCTGQNEHQRENSGHRRDQIIEKDAALCVLIDEMNERP
B13: CRY1 (protein, UniProt Q16526 1-586, looked up)
Cryptochrome-1: MGVNAVHWFRKGLRLHDNPALKECIQGADTIRCVYILDPWFAGSSNVGINRWRFLLQCLEDLDANLRKLNSRLFVIRGQPADVFPRLFKEWNITKLSIEYDSEPFGKERDAAIKKLATEAGVEVIVRISHTLYDLDKIIELNGGQPPLTYKRFQTLISKMEPLEIPVETITSEVIEKCTTPLSDDHDEKYGVPSLEELGFDTDGLSSAVWPGGETEALTRLERHLERKAWVANFERPRMNANSLLASPTGLSPYLRFGCLSCRLFYFKLTDLYKKVKKNSSPPLSLYGQLLWREFFYTAATNNPRFDKMEGNPICVQIPWDKNPEALAKWAEGRTGFPWIDAIMTQLRQEGWIHHLARHAVACFLTRGDLWISWEEGMKVFEELLLDADWSINAGSWMWLSCSSFFQQFFHCYCPVGFGRRTDPNGDYIRRYLPVLRGFPAKYIYDPWNAPEGIQKVAKCLIGVNYPKPMVNHAEASRLNIERMKQIYQQLSRYRGLGLLASVPSNPNGNGGFMGYSAENIPGCSSSGSCSQGSGILHYAHGDSQQTHLLKQGRSSMGTGLSGGKRPSQEEDTQSIGPKVQRQSTN

System: HEK293FT cells transfected with TF library
Test: Screening of TF condensates based on fluorescent puncta
Type: cell-based
Details: Figure 1B numerical data; TF library screen, one value per transcriptional factor
How it was run: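 HEK293FT, PEI transfection of TF library, 60 h; ±glucose 12 h; 4% PFA fix, 0.05% Triton X-100 permeabilization, 5% BSA block; anti-Flag/anti-GAL4 overnight at 4 °C, Alexa 488 secondary 1 h; high-content imaging, 50 fields/well.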

Molecule	Z score of condensed fraction
B1	-0.4872
B2	-0.2607
B3	0.2566
B4	-0.6879
B5	2.466
B6	-0.2095
B7	-0.3156
B8	-0.7141
B9	0.3406
B10	-0.7399
B11	-0.7101
B12	-0.379
B13	-0.5227
